Laboratory results as given in patent US8445006B2, “Biomolecular coating for implants” (Georgia Tech Research Corporation, priority 2006, dated 2013).

What was measured:
αvβ3 integrin = molecular target: T1, αvβ3 integrin (Mus musculus, UniProt O54890+P43406); assay: Crosslinking/extraction immunostaining of bound integrin; type: cell-based, murine; details: 4 h on saturated ligand-functionalized SAMs
T1 construct: endogenous in cells; host or cells: MC3T3-E1 murine osteoblast-like cells
T1 sequence (P43406 31-885 limits assumed): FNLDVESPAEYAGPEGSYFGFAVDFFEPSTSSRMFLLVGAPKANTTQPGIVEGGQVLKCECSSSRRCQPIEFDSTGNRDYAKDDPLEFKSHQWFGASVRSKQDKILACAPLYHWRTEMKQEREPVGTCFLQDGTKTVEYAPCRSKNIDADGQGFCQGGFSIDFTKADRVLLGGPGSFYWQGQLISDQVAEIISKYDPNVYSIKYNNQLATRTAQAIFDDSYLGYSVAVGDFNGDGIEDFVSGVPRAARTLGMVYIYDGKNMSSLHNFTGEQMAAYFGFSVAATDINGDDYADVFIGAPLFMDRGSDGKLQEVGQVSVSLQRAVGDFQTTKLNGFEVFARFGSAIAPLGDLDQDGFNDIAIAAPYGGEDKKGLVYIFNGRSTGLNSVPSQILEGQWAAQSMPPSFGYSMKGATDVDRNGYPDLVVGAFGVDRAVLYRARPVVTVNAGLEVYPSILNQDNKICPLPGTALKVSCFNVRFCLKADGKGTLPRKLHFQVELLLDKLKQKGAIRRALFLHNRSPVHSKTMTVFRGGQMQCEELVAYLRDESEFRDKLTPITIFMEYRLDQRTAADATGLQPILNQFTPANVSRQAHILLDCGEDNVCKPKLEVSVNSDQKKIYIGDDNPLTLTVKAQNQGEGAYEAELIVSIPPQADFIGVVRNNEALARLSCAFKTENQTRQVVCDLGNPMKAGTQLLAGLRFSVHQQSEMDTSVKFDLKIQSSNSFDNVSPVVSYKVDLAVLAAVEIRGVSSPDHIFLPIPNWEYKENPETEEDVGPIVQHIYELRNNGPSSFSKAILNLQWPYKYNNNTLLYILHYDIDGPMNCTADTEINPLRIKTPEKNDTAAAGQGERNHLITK
T1 sequence (P43406 887-1044 limits assumed): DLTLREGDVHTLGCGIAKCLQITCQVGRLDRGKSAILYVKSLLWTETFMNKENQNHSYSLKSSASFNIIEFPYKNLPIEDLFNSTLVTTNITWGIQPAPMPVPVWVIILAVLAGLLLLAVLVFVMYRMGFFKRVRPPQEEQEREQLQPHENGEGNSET
T1 sequence (O54890 26-787): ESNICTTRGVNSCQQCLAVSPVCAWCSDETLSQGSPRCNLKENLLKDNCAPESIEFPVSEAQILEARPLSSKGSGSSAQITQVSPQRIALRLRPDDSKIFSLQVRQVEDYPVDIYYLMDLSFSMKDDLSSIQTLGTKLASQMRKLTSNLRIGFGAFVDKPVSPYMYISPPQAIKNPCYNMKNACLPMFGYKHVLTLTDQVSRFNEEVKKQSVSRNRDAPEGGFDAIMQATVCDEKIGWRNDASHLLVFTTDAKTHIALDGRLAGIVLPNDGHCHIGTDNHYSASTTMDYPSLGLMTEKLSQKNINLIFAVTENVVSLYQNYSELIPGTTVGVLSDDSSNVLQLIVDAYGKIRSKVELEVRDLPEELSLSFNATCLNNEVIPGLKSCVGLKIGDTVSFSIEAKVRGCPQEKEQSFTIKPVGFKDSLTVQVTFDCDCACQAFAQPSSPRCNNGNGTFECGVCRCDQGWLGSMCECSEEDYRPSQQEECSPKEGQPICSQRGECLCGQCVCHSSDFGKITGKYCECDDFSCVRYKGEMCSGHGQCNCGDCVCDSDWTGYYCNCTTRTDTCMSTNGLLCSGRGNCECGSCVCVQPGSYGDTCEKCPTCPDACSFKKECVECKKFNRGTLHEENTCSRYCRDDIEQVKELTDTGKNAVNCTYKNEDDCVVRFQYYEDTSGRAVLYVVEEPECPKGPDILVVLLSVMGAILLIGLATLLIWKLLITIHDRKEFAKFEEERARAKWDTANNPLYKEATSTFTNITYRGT
Protocol: Surfaces were prepared on either 6-well plate lids or 35 mm tissue culture dishes, and cells seeded at 75 cells/mm^2 in serum-containing media for 4 h at 37° C. For integrin staining, a cross-linking/extraction biochemical method that selectively isolates bound integrins was employed. Cells were washed, and 1.0 mM DTSSP (Pierce) was added for 15 min to cross-link ligated integrins. After quenching with 50 mM Tris, uncrosslinked cellular components were extracted in 0.1% SDS supplemented with protease inhibitors (350 μg/ml PMSF). Samples were then blocked in 5% FBS for 1 h and incubated with integrin-specific antibodies for 1 h at 37° C. Fluorochrome-labeled secondary antibodies were then incubated for 1 h at 37° C. Following washing, samples were mounted on slides with Gel/Mount mounting media (Biomeda, Foster City, Calif.). For staining of focal adhesions, cells were extracted in 0.5% Triton X-100 in ice-cold cytoskeleton buffer (50 mM NaCl, 3 mM MgCl2, 150 mM sucrose, 20 μg/ml aprotonin, 1 μg/ml leupeptin, 1 mM PMSF, 50 mM Tris, pH 6.8) for 2 min and fixed in cold 3.7% formaldehyde in DPBS for 5 min. Cultures were blocked, subsequently incubated in anti-vinculin monoclonal antibody (1:70 in 5% FBS) and fluorochrome-labeled secondary antibodies for 1 h, and samples mounted on slides.
Since MC3T3-E1 cells assemble robust focal adhesions containing clustered integrins and intracellular structural and signaling proteins, integrin binding and focal adhesion assembly on the engineered interfaces was examined by staining for different integrin subunits and vinculin, which localizes to focal adhesions. MC3T3-E1 cells were allowed to adhere on each saturated ligand-functionalized support for 4 h and integrin binding was evaluated via a crosslinking/extraction and immunostaining protocol, which isolates integrins ligated to the ligand. […] The crosslinking and extraction technique relies in coupling free amines on both the receptor and ligand. Since the tethered RGD has no free amine, the αvβ3 staining in the RGD surfaces is attributed to focal adhesions that were not completely extracted. […] Both surfaces assembled focal adhesions containing vinculin.

osteoblastic cells = assay: In vitro bioresistance and adhesive capacity of poly(OEGMA) brushes on titanium; type: cell-based; details: serum-containing media, osteoblastic cells 1 h
Protocol: Surfaces were incubated in serum-containing media for various times and subsequently challenged with osteoblastic cells for 1 h.

Substance	bound αvβ3 integrin staining (αvβ3 integrin)	cell adhesion on ligand-presenting poly(OEGMA) brushes (osteoblastic cells)
GRGDSPC [RGD peptide, linear RGD oligopeptide purchased from BACHEM; primarily supports αvβ3-mediated adhesion, reference compound]	clustering of αvβ3	comparable to the unmodified titanium
FNIII7-10: monobiotinylated recombinant fibronectin fragment spanning the 7-10th type III repeats of fibronectin; α5β1 integrin ligand	minimal αvβ3 binding	comparable to the unmodified titanium
